In patent US20050032185:

B1: GST-DSTPK61 (residues 1-752 of Drosophila Serine/Threonine Protein Kinase-61, expressed in E. coli) (protein)
chain: MKCKSWSNKINNYVVRKIKSIKINGTQQQLQLPGSGASGIAAAAVITVASDCGENCSSNGTEHQQHFNIATTTATSATEATMPAMAKEKASATVSLGESNFRDINLKDLAVVVEAASRLHHQQNVCGCGAVSSTENNNNSRYGSSKYLTNGHTSPLAAAVASNSSSVATTPHCRMLHNCSLQQYQNDIRQQTEILDMLRQQHQQGYQSQQQQQQPQQQQEQQQQQEQSQQQQQLQNPAPRRSPNDFIFGRYIGEGSYSIVYLAVDIHSRREYAIKVCEKRLILRERKQDYIKREREVMHQMTNVPGFVNLSCTFQDQRSLYFVMTYARKGDMLPYINRVGSFDVACTRHYAAELLLACEHMHRRNVVHRDLKPENILLDEDMHTLIADFGSAKVMTAHERALATEHCSEQRRSNSDEDDEDSDRLENEDEDFYDRDSEELDDGDDEQQQEEMDSPRHRQRRYNRHRKASFVGTAQYVSPEVLQNGPITPAADLWALGCIVYQMIAGLPPFRGSNDYVIFKEILDCAVDFPQGFDKDAEDLVRKLLRVDPRDRLGAQDEFGYYESIRAHPFFAGIDWQTLRQQTPPPIYPYLPGVSQDEDFRSSYTVPGDLEPGLDERQISRLLSAELGVGSSVAMPVKRSTAKNSFDLNDAEKLQRLEQQKTDKWHVFADGEVILKKGFVNKRKGLFARKRMLLLTTGPRLIYIDPVQMIKKGEIPWSPDLRAEYKNFKIFFVHTPNRTYYLDDPEGYAIHW
B2: PDK1 (form and source not specified in the sentence) (enzyme, UniProt O15530 1-556, looked up, species assumed)
3-phosphoinositide-dependent protein kinase 1: MARTTSQLYDAVPIQSSVVLCSCPSPSMVRTQTESSTPPGIPGGSRQGPAMDGTAAEPRPGAGSLQHAQPPPQPRKKRPEDFKFGKILGEGSFSTVVLARELATSREYAIKILEKRHIIKENKVPYVTRERDVMSRLDHPFFVKLYFTFQDDEKLYFGLSYAKNGELLKYIRKIGSFDETCTRFYTAEIVSALEYLHGKGIIHRDLKPENILLNEDMHIQITDFGTAKVLSPESKQARANSFVGTAQYVSPELLTEKSACKSSDLWALGCIIYQLVAGLPPFRAGNEYLIFQKIIKLEYDFPEKFFPKARDLVEKLLVLDATKRLGCEEMEGYGPLKAHPFFESVTWENLHQQTPPKLTAYLPAMSEDDEDCYGNYDNLLSQFGCMQVSSSSSSHSLSASDTGLPQRSGSNIEQYIHDLDSNSFELDLQFSEDEKRLLLEKQAGGNPWHQFVENNLILKMGPVDKRKGLFARRRQLLLTEGPHLYYVDPVNKVLKGEIPWSQELRPEAKNFKTFFVHTPNRTYYLMDPSGNAHKWCRKIQEVWRQRYQSHPDAAVQ

Assays:
[1] = molecular target: GST-PKBα (full length human protein kinase Bα with N-terminal glutathione S-transferase, from unstimulated 293 cells) [GST: P08515]
GST-PKBα (full length human protein kinase Bα with N-terminal glutathione S-transferase, from unstimulated 293 cells) [GST: P08515], sequence (P08515 whole entry, looked up): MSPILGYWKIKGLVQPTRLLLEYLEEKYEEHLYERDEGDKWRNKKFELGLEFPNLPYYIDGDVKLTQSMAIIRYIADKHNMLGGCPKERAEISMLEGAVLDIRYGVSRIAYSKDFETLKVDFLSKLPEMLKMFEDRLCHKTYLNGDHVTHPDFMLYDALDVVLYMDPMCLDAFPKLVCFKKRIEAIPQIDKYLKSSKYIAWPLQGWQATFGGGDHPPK

protein kinase Bγ, sequence (Q9Y243 2-479): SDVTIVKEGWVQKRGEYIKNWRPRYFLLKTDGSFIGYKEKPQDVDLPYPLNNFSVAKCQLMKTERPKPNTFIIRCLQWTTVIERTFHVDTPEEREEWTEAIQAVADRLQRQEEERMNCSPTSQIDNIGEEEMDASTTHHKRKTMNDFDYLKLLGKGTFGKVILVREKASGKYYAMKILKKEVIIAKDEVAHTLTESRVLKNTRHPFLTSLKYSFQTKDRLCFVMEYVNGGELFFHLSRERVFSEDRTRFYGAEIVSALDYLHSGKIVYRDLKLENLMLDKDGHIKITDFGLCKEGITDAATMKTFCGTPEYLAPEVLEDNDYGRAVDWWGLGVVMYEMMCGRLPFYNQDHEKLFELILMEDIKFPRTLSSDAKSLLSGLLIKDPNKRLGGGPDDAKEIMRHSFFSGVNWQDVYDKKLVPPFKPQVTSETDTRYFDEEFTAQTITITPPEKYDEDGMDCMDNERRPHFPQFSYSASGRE

Protein | increase in GST-PKBα activity at maximal phosphorylation [1] | maximal phosphorylation of GST-PKBα (mol phosphate per mol protein) [1] | specific activity towards GST-PKBα in the presence of PtdIns(3,4,5)P3 [1] | phosphorylation (p70 S6 kinase) | phosphorylation and activation (protein kinase Bβ) | phosphorylation and activation (protein kinase Bγ)
B1 | paralleled by a 35 fold increase in activity | the phosphorylation of GST-PKBα reached 0.75 mol phosphate per mol protein | bacterially expressed GST-DST PK61 (280 U/mg) | – | – | –
B2 | – | – | – | PDK1 has been shown by us to phosphorylate p70 S6 kinase in the absence of InsPtd(3,4,5)P3 | PDK1 phosphorylates and activates not only PKBα but also PKBβ and PKBγ | PDK1 phosphorylates and activates not only PKBα but also PKBβ and PKBγ
